Experimental data as given in the Immune Epitope Database (IEDB).
Values belong to the sequence of their own block, whether it stands above or below them.

Key:
HLA-B*35:01 = assay: IEDB peptide-MHC binding, purified MHC/direct/fluorescence; filed as Kd, often an IC50 or EC50 that approximates it; ≥ and ≤ were set here for values at or beyond the usual limits of such assays; conditions: source organism: Yellow fever virus
HLA-B*51:01 [1] = assay: as above; conditions: source organism: Yellow fever virus
HLA-C*03:03 = assay: as above
HLA-A*02:01 [2] = assay: IEDB peptide-MHC binding, purified MHC/competitive/fluorescence; filed as Kd, often an IC50 or EC50 that approximates it; ≥ and ≤ were set here for values at or beyond the usual limits of such assays
HLA-A*31:01 [3] = assay: IEDB peptide-MHC binding, purified MHC/direct/fluorescence; filed as Kd, often an IC50 or EC50 that approximates it; ≥ and ≤ were set here for values at or beyond the usual limits of such assays
HLA-B*48:01 = assay: as above; conditions: source organism: West Nile virus
HLA-B*18:01 [4] = assay: as above; conditions: source organism: West Nile virus
HLA-A*11:01 = assay: as above
HLA-B*58:01 [5] = assay: as above
HLA-B*40:01 = assay: as above
HLA-B*08:02 = assay: as above; conditions: source organism: West Nile virus strain PTRoxo
HLA-A*01:01 [6] = assay: as above
HLA-B*44:02 [7] = assay: as above; conditions: source organism: West Nile virus
HLA-B*27:05 = assay: as above
HLA-B*57:01 [8] = assay: as above; conditions: source organism: West Nile virus
HLA-A*03:01 [9] = assay: as above
HLA-A*31:01 [10] = assay: IEDB peptide-MHC binding, purified MHC/competitive/fluorescence; filed as Kd, often an IC50 or EC50 that approximates it; ≥ and ≤ were set here for values at or beyond the usual limits of such assays
HLA-A*69:01 = assay: IEDB peptide-MHC binding, purified MHC/direct/fluorescence; filed as Kd, often an IC50 or EC50 that approximates it; ≥ and ≤ were set here for values at or beyond the usual limits of such assays; conditions: source organism: Escherichia coli
HLA-A*26:01 [11] = assay: as above; conditions: source organism: Escherichia coli
HLA-B*08:01 = assay: as above; conditions: source organism: Escherichia coli
HLA-B*07:02 = assay: as above; conditions: source organism: Escherichia coli
HLA-A*24:03 = assay: as above
HLA-A*02:01 [12] = assay: as above; conditions: source organism: Escherichia coli
HLA-B*15:01 [13] = assay: as above
HLA-A*02:06 = assay: IEDB peptide-MHC binding, purified MHC/competitive/fluorescence; filed as Kd, often an IC50 or EC50 that approximates it; ≥ and ≤ were set here for values at or beyond the usual limits of such assays; conditions: source organism: Escherichia coli
HLA-A*02:11 = assay: as above; conditions: source organism: Escherichia coli
HLA-A*02:03 = assay: as above; conditions: source organism: Escherichia coli
HLA-A*02:12 = assay: as above; conditions: source organism: Escherichia coli
HLA-B*58:01 [14] = assay: IEDB peptide-MHC binding, purified MHC/competitive/radioactivity; filed as Kd, often an IC50 or EC50 that approximates it; ≥ and ≤ were set here for values at or beyond the usual limits of such assays
HLA-A*01:01 [15] = assay: as above; conditions: source organism: Dengue virus 3 Martinique/1243/1999
HLA-B*51:01 [16] = assay: as above; conditions: source organism: Dengue virus 3 Martinique/1243/1999
HLA-C*06:02 = assay: IEDB peptide-MHC binding, purified MHC/direct/fluorescence; filed as Kd, often an IC50 or EC50 that approximates it; ≥ and ≤ were set here for values at or beyond the usual limits of such assays
HLA-B*44:03 = assay: IEDB peptide-MHC binding, purified MHC/competitive/radioactivity; filed as Kd, often an IC50 or EC50 that approximates it; ≥ and ≤ were set here for values at or beyond the usual limits of such assays; conditions: source organism: Dengue virus 3 Sri Lanka/1266/2000
HLA-B*44:02 [17] = assay: as above; conditions: source organism: Dengue virus 3 Sri Lanka/1266/2000
HLA-B*53:01 = assay: as above; conditions: source organism: Dengue virus 3 Sri Lanka/1266/2000
HLA-A*03:01 [18] = assay: IEDB peptide-MHC binding, purified MHC/competitive/fluorescence; filed as Kd, often an IC50 or EC50 that approximates it; ≥ and ≤ were set here for values at or beyond the usual limits of such assays
HLA-B*46:01 [19] = assay: IEDB peptide-MHC binding, purified MHC/direct/fluorescence; filed as Kd, often an IC50 or EC50 that approximates it; ≥ and ≤ were set here for values at or beyond the usual limits of such assays; conditions: source organism: Yellow fever virus
HLA-A*26:01 [20] = assay: IEDB peptide-MHC binding, purified MHC/competitive/fluorescence; filed as Kd, often an IC50 or EC50 that approximates it; ≥ and ≤ were set here for values at or beyond the usual limits of such assays
HLA-B*39:01 = assay: as above; conditions: source organism: Escherichia coli
HLA-C*14:02 = assay: IEDB peptide-MHC binding, purified MHC/direct/fluorescence; filed as Kd, often an IC50 or EC50 that approximates it; ≥ and ≤ were set here for values at or beyond the usual limits of such assays; conditions: source organism: Pan troglodytes
HLA-C*15:02 = assay: as above; conditions: source organism: Pan troglodytes
HLA-B*46:01 [21] = assay: IEDB peptide-MHC binding, purified MHC/competitive/fluorescence; filed as Kd, often an IC50 or EC50 that approximates it; ≥ and ≤ were set here for values at or beyond the usual limits of such assays; conditions: source organism: Pan troglodytes
HLA-B*18:01 [22] = assay: as above; conditions: source organism: Pan troglodytes
HLA-B*27:03 = assay: as above; conditions: source organism: Pan troglodytes
HLA-B*57:01 [23] = assay: as above; conditions: source organism: Pan troglodytes
HLA-B*15:01 [24] = assay: as above; conditions: source organism: Pan troglodytes
[25] = source organism: Yellow fever virus
[26] = source organism: Vaccinia virus WR
[27] = source organism: West Nile virus
[28] = source organism: Mammarenavirus juninense
[29] = source organism: Escherichia coli
[30] = source organism: Escherichia coli E22
[31] = source organism: Pan troglodytes

Sequence: AATIRVLAL
Kd (HLA-B*35:01): ≥ 20000 nM
Kd (HLA-B*51:01 [1]): ≥ 20000 nM
Kd (HLA-C*03:03; [25]): 9 nM

Sequence: GLNDYLHSV
Kd (HLA-C*03:03; [26]): ≥ 20000 nM
Kd (HLA-A*02:01 [2]; [26]): 1.6 nM

Sequence: ILRNPGYAL
Kd (HLA-A*31:01 [3]; [27]): ≥ 20000 nM
Kd (HLA-B*48:01): ≥ 20000 nM
Kd (HLA-B*18:01 [4]): ≥ 20000 nM
Kd (HLA-A*11:01; [27]): ≥ 20000 nM
Kd (HLA-B*58:01 [5]; [27]): ≥ 20000 nM
Kd (HLA-B*40:01; [27]): ≥ 20000 nM
Kd (HLA-B*08:02): ≥ 20000 nM
Kd (HLA-A*01:01 [6]; [27]): ≥ 20000 nM
Kd (HLA-B*44:02 [7]): ≥ 20000 nM
Kd (HLA-B*27:05; [27]): ≥ 20000 nM
Kd (HLA-B*57:01 [8]): ≥ 20000 nM
Kd (HLA-C*03:03; [27]): 157 nM
Kd (HLA-A*03:01 [9]; [27]): ≥ 20000 nM

Sequence: KLFDLHGRR
Kd (HLA-A*03:01 [9]; [28]): 241 nM
Kd (HLA-A*31:01 [10]; [28]): 11.1 nM

Sequence: KVLCPYMPK
Kd (HLA-A*11:01; [27]): 3.7 nM
Kd (HLA-A*03:01 [9]; [27]): 562 nM
Kd (HLA-A*31:01 [10]; source organism: Japanese encephalitis virus): 60.5 nM

Kd (HLA-A*31:01 [3]; [29]): 562 nM
Kd (HLA-A*69:01): 4.76 nM
Kd (HLA-A*26:01 [11]): 343 nM
Kd (HLA-A*11:01; [29]): ≥ 20000 nM
Kd (HLA-B*58:01 [5]; [29]): ≥ 20000 nM
Kd (HLA-B*40:01; [29]): ≥ 20000 nM
Kd (HLA-A*01:01 [6]; [29]): ≥ 20000 nM
Kd (HLA-B*08:01): ≥ 20000 nM
Kd (HLA-B*27:05; [29]): ≥ 20000 nM
Kd (HLA-B*07:02): ≥ 20000 nM
Kd (HLA-A*03:01 [9]; [29]): ≥ 20000 nM
Kd (HLA-A*24:03; [29]): ≥ 20000 nM
Kd (HLA-A*02:01 [12]): 5.74 nM
Kd (HLA-B*15:01 [13]; [29]): 234 nM
Kd (HLA-A*02:06): 2.85 nM
Kd (HLA-A*02:11): ≤ 0.1 nM
Kd (HLA-A*02:03): ≤ 0.1 nM
Kd (HLA-A*02:12): ≤ 0.1 nM
Sequence: LMQWWSDYV

Sequence: LTAAVLLLI
Kd (HLA-B*58:01 [14]; source organism: Dengue virus 3 Martinique/1243/1999): 11.3 nM
Kd (HLA-A*01:01 [15]): ≥ 78100 nM
Kd (HLA-B*51:01 [16]): 647 nM

Sequence: LYIEILRLL
Kd (HLA-C*06:02; source organism: Mycobacterium tuberculosis C): 44 nM
Kd (HLA-A*24:03; source organism: Mycobacterium avium 104): 7 nM

Sequence: MEITAEWLW
Kd (HLA-B*58:01 [14]; source organism: Dengue virus 3 Sri Lanka/1266/2000): 5.39 nM
Kd (HLA-B*44:03): 9.15 nM
Kd (HLA-B*44:02 [17]): 4.63 nM
Kd (HLA-B*53:01): 32.1 nM

Kd (HLA-A*31:01 [10]; [30]): 246 nM
Kd (HLA-A*03:01 [18]; [30]): ≥ 20000 nM
Sequence: MFIIKYFKK

Sequence: RSHAAIGAY
Kd (HLA-B*46:01 [19]): ≥ 20000 nM
Kd (HLA-A*11:01; [25]): ≥ 20000 nM
Kd (HLA-B*15:01 [13]; [25]): 87 nM
Kd (HLA-A*31:01 [10]; [25]): ≥ 20000 nM

Kd (HLA-C*03:03; source organism: Escherichia coli B171): ≤ 1 nM
Kd (HLA-A*26:01 [20]; [29]): 232 nM
Kd (HLA-B*39:01): 87.1 nM
Kd (HLA-A*02:01 [2]; [29]): 1.7 nM
Sequence: YIVGYYSAL

Kd (HLA-C*06:02; [31]): 6 nM
Kd (HLA-C*14:02): ≤ 1 nM
Kd (HLA-C*15:02): 771 nM
Kd (HLA-B*46:01 [21]): ≥ 20000 nM
Kd (HLA-A*26:01 [20]; [31]): ≥ 20000 nM
Kd (HLA-B*18:01 [22]): ≥ 20000 nM
Kd (HLA-B*27:03): ≥ 20000 nM
Kd (HLA-B*57:01 [23]): ≥ 20000 nM
Kd (HLA-A*03:01 [18]; [31]): ≥ 20000 nM
Kd (HLA-A*02:01 [2]; [31]): 130 nM
Kd (HLA-B*15:01 [24]): ≥ 20000 nM
Sequence: YYFSYPLFV
